Measurements published in patent publication US20030096379A1, “Method for producing tryptamine derivatives” (priority 2001, published 2003).
Marks after values point to notes of the source that are not given here.

How the values were obtained:
TrpBA = molecular target: T1, TrpBA (Escherichia coli, UniProt P0A879); test: Relative rates of tryptophan derivative synthesis by HPLC, TrpBA; type: biochemical, E. coli; conditions: initial rate estimated by HPLC, indole = 100%, L-serine
T1 construct: made in house; host or cells: E. coli LMG194 (pBAD) or BL-21 (pET)
Description: (§1) Reaction mixtures were prepared as in Example 6 and were incubated at 37° C. Aliquots (100 μL) were removed and quenched by addition of to 300 μL of 0.5 M sodium citrate, pH 3.0 in 10% v/v acetonitrile/water in 2 ml microcentrifuge tubes. Following centrifugation for 10 min at 13,000×g, the supernatants were passed through 0.45μ membrane filters prior to HPLC analysis of 20 μL of filtrate.
(§2) TnA reactions were run with L-serine as the 3-carbon substrate.

TnA = molecular target: T2, TnA (Escherichia coli, UniProt P0A853); test: Relative rates of tryptophan derivative synthesis by HPLC, TnA; type: biochemical, E. coli; conditions: initial rate estimated by HPLC, indole = 100%, L-serine as the 3-carbon substrate
T2 construct: made in house; host or cells: E. coli LMG194 (pBAD) or BL-21 (pET)
Description: as §1, with “Aliquots” for “Reaction mixtures were prepared as in Example 6 and were incubated at 37° C. Aliquots”
as §2

[1] = molecular target: T3, E. coli DH5α tryptophan synthase (TrpBA) (Escherichia coli, UniProt P0A879); type: biochemical; design: key: +: a clear ninhydrin-positive spot at the Rf of standard tryptophan derivatives after 16-65 h; (+): a weak spot in the product region; −: no product observed; NR: experiment not run; conditions: indole derivative + L-serine + PLP, 37° C., 16-65 h, ninhydrin
T3 construct: made in house; host or cells: E. coli LMG194 (pBAD) or BL-21 (pET)
Description: (§3) A mixture containing 2 μmole of the indole derivative, 0.05 μmole of PLP and 50 μmol of L-serine in 40 mM KPi buffer in 8% v/v ethanol water, pH 7.5, was warmed to 37° C., then enzyme solution was added to give a final volume of 1 mL. Aliquots (100 μL) were quenched at intervals of 2, 6, and 24 hours or more in microcentrifuge capsules containing 25 μL of 6 M HCl. The quenched samples were evaporated in a Savant Speed-vac. The residues were resuspended in methanol/water (1:1, 50 μL) and analyzed by TLC on Silica gel GF254 plates alongside tryptophan and tryptamine standards, eluting with CH2Cl2/EtOH/H2O/HOAc 77:20:2:1. Products were visualized first by using short-wave UV light, then with ninhydrin spray reagent (1/1/98 w/v/v ninhydrin/HOAc/EtOH) followed by heating.
(§4) Substituted indoles were incubated with L-serine, PLP and enzyme (TrpBA or TnA) prior to TLC analysis as generally described in Example 6. Serine, which can be used instead of pyruvate and ammonia for tryptophan synthesis with TnA, was employed as the 3-carbon acid because pyruvate tended to obscure the tryptophan product spots when plates were visualized with ninhydrin. TnA-catalyzed formation of tryptophan was also faster when serine was the 3-carbon donor. Reaction rates for several substrates were also estimated by HPLC.
(§5) In Table 4, “+” indicates a clear ninhydrin-positive spot at the Rf of standard tryptophan derivatives after 16-65 h; “(+)” indicates a weak spot in the product region; “−” means no product observed, “NR” means experiment not run. ESMS=electrospray mass spectrometry. Unless otherwise indicated, the mass value given represents the singly-protonated molecular ion (M+1).

tryptophanase (TnA) = molecular target: T4, tryptophanase (TnA) (Escherichia coli, UniProt P0A853); type: biochemical, E. coli; design: key: +: a clear ninhydrin-positive spot at the Rf of standard tryptophan derivatives after 16-65 h; (+): a weak spot in the product region; −: no product observed; NR: experiment not run; conditions: indole derivative + L-serine + PLP, 37° C., 16-65 h, ninhydrin
T4 construct: made in house; host or cells: E. coli LMG194 (pBAD) or BL-21 (pET)
Description: as §3, §4, §5

TrpBA and TDC1 = test: Coupled enzyme synthesis monitored by HPLC; type: biochemical; conditions: L-serine, PLP, pH 8.5 phosphate buffer, 37° C.
Description: To a solution containing L-serine (25 μmol), pyridoxal phosphate (0.05 μmol) and TrpBA (0.02 to 1.5 units, depending on the substrate), TDC1 (0.2 mL 0.6 units) and KPi buffer (0.05 mmol, pH 7.5) in a volume of 0.8 mL were added […] of 5 mM indole derivative in 20% v/v ethanol/water. The mixture was incubated at 37° C. and aliquots were quenched and analyzed as described for Example 8. In cases where tryptamine and/or tryptophan standards were not available, peaks were collected for mass spectral analysis. Electrospray mass spectral analyses were performed.
Mixtures containing indole, L-serine, PLP and TDC1 were incubated in pH 8.5 phosphate buffer, analyzing aliquots by HPLC, as described in Example 12.
The procedure used in Example 24 was carried out by substituting indole with 2-methylindole, 4-hydroxymethylindole, 5-methoxy-, 5-hydroxymethyl-, 5-methoxycarbonyl, and 5,6-dimethoxyindole.

[2] = pH-rate profiles for tryptophan-metabolizing enzymes; type: biochemical; conditions: for activity over the entire optimum pH range shown by TrpBA: pH 7.5 to 9.5
Source text: Both AAADs TDC1 and TDC2 were active over the entire optimum range shown by TrpBA. These broad activity ranges make it clear that the coupled enzyme process is not limited by pH.

[3] = Decarboxylase activity of the enzyme preparations (Ehrlich's reagent); type: biochemical
Description: (§6) Tryptophan synthase activity was assayed by monitoring the increase in absorbance at 290 nm of a mixture containing serine, indole and PLP (Higgins, W., et al., Biochemistry, 1979, 18, 4827). TnA-catalyzed tryptophan synthesis was also measured by the 290 nm assay, while the tryptophan lyase reaction rate was measured by monitoring the reduction in NADH in reaction mixtures containing L-tryptophan and lactate dehydrogenase, indicating the amount of pyruvate released. Tryptophan decarboxylase was assayed colorimetrically by monitoring the sabsorbance at 580 nm produced by serotonin (AAADs) or tryptamine (TDCs) following treatment of reaction aliquots with Ehrlich's reagent (4-N,N-(dimethyl)aminobenzaldehyde in ethanolic HCl; Nakazawa, H.; Kumagi, H.; Yamada, H. Biochem Biophys. Res. Commun., 1974, 61, 75-82). Serotonin could be detected with approximately 5-fold higher sensitivity by this method as compared with tryptamine. The Ehrlich reagent assay using a microtiter plate format for simultaneous analysis of multiple enzyme samples may also be used. HPLC analysis was performed on acid-quenched reaction aliquots by using a base-deactivated C8 reversed-phase support (Shandon Hypersil BD8). HPLC analysis of acid-quenched aliquots permitted calculation of a rate ratio of 4.5 to 1 for pkAAAD-catalyzed DOPA decarboxylation relative to that of L-5-hydroxytryptophan, in good agreement with the accepted ratio of approximately 5:1. (See Sourkes, T. L. Methods Enzymol., 1987, 142, 170-178, which is incorporated herein by reference.)
A mixture (0.95 mL) containing L-5-hydroxytryptophan (2 mM), PLP (0.25 mM) and pH 7.5 KPi buffer (44 mM) was warmed to 37° C., then 50 μL of enzyme was added. Reaction aliquots were quenched in microcentrifuge capsules containing 50 μL each of 6M HCl to quench the enzyme reaction at 2, 5, and 20 min. Quenched aliquots were heated at 50° C. for 40 min with 750 μL each of Ehrlich's reagent (2:24:74 w/v/v […]: conc HCl: ethanol). Absorbance was read at 580-nm and compared with standards of serotonin (10-250 μM) or tryptamine (50 to 2000 μM).
Decarboxylase enzyme activity was determined using L-5-hydroxytryptophan as the substrate unless otherwise stated.

[4] = Tryptophan synthase activity of the enzyme preparation (290 nm assay); type: biochemical, E. coli
Description: as §6
Reaction mixtures were prepared as in Example 6 in polymethacrylate or quartz spectrophotometer cuvettes, and the increase absorbance were measured immediately at 290 nm, assuming a change in extinction coefficient for the indole-tryptophan conversion is δ290=1.85 MM−1 cm^−1. For TrpBA, the rate at 37° C. is approximately 2.8 fold higher than at 23° C.
Activity is expressed as μmol product formed per minute, TrpBA activity is reported for the reaction: indole+serine−>tryptophan at room temperature as described in the next section. Tryptophanase is reported for the reaction: tryptophan−>indole+pyruvate+NH4^+ at room temperature. The rate of tryptophan synthesis for TrpBA under our assay conditions is approximately 3-fold higher at 37° C.

[5] = Table 2, L-5-hydroxytryptophan as substrate

Molecule | Relative rate (TrpBA) (TrpBA) | TrpBA (tryptophan product spot, TLC analysis) [1] | TnA (tryptophan product spot, TLC analysis) (tryptophanase (TnA)) | formation of tryptophan derivative and tryptamine (HPLC peaks) (TrpBA and TDC1) | activity over the entire optimum pH range shown by TrpBA [2] | Crude specific activity [3, 5] [units/mg] | Purified specific activity [3, 5] [Units/mg] | Crude specific activity ([3]; Table 3, decarboxylases) [units/mg] | further results
c1cc2cc3c(cc2[nH]1)OCO3 [5,6-methylenedioxy-] | 0.018% | − | + |  |  |  |  |  | Relative Rate (TnA) (TnA): 1.0%
Cc1cc2ccccc2[nH]1 [2-methyl-, 2-methylindole] | 20.6* % | − | + | a second peak representing formation of tryptamine |  |  |  |  | 
COc1ccc2[nH]ccc2c1 [5-methoxy-] | 19.0% | + | + | a second peak representing formation of tryptamine |  |  |  |  | 
TDC1: C. accuminata tryptophan decarboxylase expressed in E. coli DH5α (protein, UniProt P93082 1-502, looked up) Tryptophan decarboxylase TDC1: MGSLDSNYDTESPASVGQFNPLDPEEFRKQAHCIVDFIADYYKNIESYPVLSQVDPGYRHSRLGKNAPYRSEPFESILKDVQKDIIPGMTHWMSPNFFAHFPATVSSAAFVGEMLCTCFNSVGFNWLASPAATELEMVVIDWLANMLKLPKSFMFSGTGGGVLQGTTSEAILCTLIAASPMHFEIVGVKTSTSFVVYGSDQTHSTYAKACKLAGILPCNIRSIPTTADSNFSVSPLLLRRAIEADKAAGMVPLYICATVGTTSTTAIDPLSSLADVANDYGVWFHVDAAYAGSACICPEFRHYLDGIERADSLSLSPHKWLLSYLDCCCLWVKSPSLLVKALSTDPEYLKNQPSESKSVVDYKDWQVGTGRRFKALRLWFVMRSYGVANLQSHIRTDVQMAKMFEGFVKSDPRFEILVPRVFSLVCFRLNPISGSDPTGTEALNRKLLDWVNSTGRVYMTHTKVGGIYMLRFAVGATLTEKRHVSSAWKLIKEGADVLLKED |  |  |  |  | active | 0.11 | 0.3 | 0.11 | 
TrpBA: wild-type E. coli DH5α tryptophan synthase, E.C.4.2.1.20, α- and β-subunits coexpressed (protein, UniProt P0A877 1-268; P0A879 2-397, looked up) Tryptophan synthase alpha …: MERYESLFAQLKERKEGAFVPFVTLGDPGIEQSLKIIDTLIEAGADALELGIPFSDPLADGPTIQNATLRAFAAGVTPAQCFEMLALIRQKHPTIPIGLLMYANLVFNKGIDEFYAQCEKVGVDSVLVADVPVEESAPFRQAALRHNVAPIFICPPNADDDLLRQIASYGRGYTYLLSRAGVTGAENRAALPLNHLVAKLKEYNAAPPLQGFGISAPDQVKAAIDAGAAGAISGSAIVKIIEQHINEPEKMLAALKVFVQPMKAATRS Tryptophan synthase beta chain: TTLLNPYFGEFGGMYVPQILMPALRQLEEAFVSAQKDPEFQAQFNDLLKNYAGRPTALTKCQNITAGTNTTLYLKREDLLHGGAHKTNQVLGQALLAKRMGKTEIIAETGAGQHGVASALASALLGLKCRIYMGAKDVERQSPNVFRMRLMGAEVIPVHSGSATLKDACNEALRDWSGSYETAHYMLGTAAGPHPYPTIVREFQRMIGEETKAQILEREGRLPDAVIACVGGGSNAIGMFADFINETNVGLIGVEPGGHGIETGEHGAPLKHGRVGIYFGMKAPMMQTEDGQIEESYSISAGLDFPSVGPQHAYLNSTGRADYVSITDDEALEAFKTLCLHEGIIPALESSHALAHALKMMRENPDKEQLLVVNLSGRGDKDIFTVHDILKARGEI |  |  |  |  |  |  |  |  | percent of the maximum rate ([2]; between pH 7.5 and 9.5, L-serine and indole): at least 90%; rate at 37° C. relative to 23° C. ([4]; 290 nm assay): approximately 2.8 fold; Crude specific activity ([4]; Table 3, TrpBA): 1.2 units/mg; Crude spec activity ([4]; TrpBA, indole+serine->tryptophan, room temperature): 1.2; Purified specific activity ([4]; TrpBA, indole+serine->tryptophan, room temperature, after DEAE cellulose): 2.2 Units/mg; rate of tryptophan synthesis at 37° C. relative to room temperature ([4]; assay conditions of Table 1): approximately 3 fold
TDC2: C. accuminata tryptophan decarboxylase expressed in E. coli DH5α (protein, UniProt P93083 1-498, looked up) Tryptophan decarboxylase TDC2: MGSIDSNYDTESAGQCRPLEPEEFRKQAHQMVDFIADYYKNIESYPVLSQVEPGYLQSRLPETAPYRPEPFESILKDVHKDIIPGVTHWLSPNFFAYFPATVSSAAFVGEMLCTCFNAVGFNWLASPAELELEMVVMDWLASMLKLPNSFTFLGTGGGVIQGTTSEAILCTLIAARDRALESIGVDSIHKLVVYGSDQTHSTYAKACNLAGILPCNIRSIRTEAVANFSLSPDSLHREIEADVAAGMVPLYLCATVGTTSTTAIDSLSPLADVANDYGLWFHVDAAYAGSACICPEFRHYLDGIERADSLSLSPHKWLLSYLDCCCLWVKRPSVLVKALSTDPEYLKNKPSESNSVVDFKDWQVGTGRRFKALRLWFVMRSYGVANLQSHIRSDIQMAKMFEEFVNSDPRFEIVVPRVFSLVCFRLNPFSKSDPCNTELLNRKLLEWVNSTGQVYITHTKVGGVYMLRFAVGATLTEEHHVSAAWKLIREGADALLCS |  |  |  |  | active | 0.12 | 0.2 | 0.12 | 
